# B1: Maclura pomifera lectin (MPA; Cat. No: H-3901-1) (other)
# chain 1: GVTFDDGAYTGIREINFEYNSETAIGGLRVTYDLNGMPFVAEDHKSFITGFKPVKISLEFPSEYIVEVSGYVGKVEGYTVIRSLTFKTNKQTYGPYGVTNGTPFSLPIENGLIVGFKGSIGYWLDYFSIYLSL
# chain 2: GRNGKSQSIIVGPWGDRVTN
# Target: T1, recombinant SARS-CoV-2 S1 protein expressed from insect (Sf9) cells (S1-His, SinoBiological, Cat. No. … (SARS-CoV-2, UniProt P0DTC2 16-685))
# T1 construct: also called S1 protein from insect (Sf9) cells
# Assay: ELISA, coated S1 from Sf9 cells, HRP-conjugated lectin 10 ug/mL
binder,measurement,value
B1,mean fold increase of OD450,7.51 fold
